Data on one substance can be found in PMC11059233.

The experiment has as its target HLA-B*35:01 expressed in C1R cells (C1R.B*35:01) (human | human (endogenous in C1R)).

With influenza B virus PB2_(66-70) peptide, the IFN-γ+TNF+ CD8+ T cells (expanded with pool J) after restimulation with peptide-pulsed C1R.B*35:01; donors responding is 1 of 6 donors.
